Laboratory results from PMC13483431, “Structure and mechanism of the HSV-1 origin-binding protein UL9” (Journal of Virology, 2025).

Tests used:
[1] = biological target: T1, full-length HSV-1 ICP8 with an N-terminal 8xHis tag (HSV-1, UniProt P04296 1-1196); assay: pull-down; Strep-tag pull-down: 50 μg Strep-tagged UL9^CTD or full-length UL9 as bait with an equal amount of ICP8; 50 mM Tris pH 8.0, 150 mM NaCl, 1 mM DTT, 0.05% Tween-20; 1 h at 4 °C; SDS-PAGE with Coomassie; conditions: both partners purified
T1 construct: also called His-tagged ICP8; source: insect cells (baculovirus, as UL9^FL), purified (Ni-NTA); not shown: 8xHis, N-terminal, kept
T1 sequence: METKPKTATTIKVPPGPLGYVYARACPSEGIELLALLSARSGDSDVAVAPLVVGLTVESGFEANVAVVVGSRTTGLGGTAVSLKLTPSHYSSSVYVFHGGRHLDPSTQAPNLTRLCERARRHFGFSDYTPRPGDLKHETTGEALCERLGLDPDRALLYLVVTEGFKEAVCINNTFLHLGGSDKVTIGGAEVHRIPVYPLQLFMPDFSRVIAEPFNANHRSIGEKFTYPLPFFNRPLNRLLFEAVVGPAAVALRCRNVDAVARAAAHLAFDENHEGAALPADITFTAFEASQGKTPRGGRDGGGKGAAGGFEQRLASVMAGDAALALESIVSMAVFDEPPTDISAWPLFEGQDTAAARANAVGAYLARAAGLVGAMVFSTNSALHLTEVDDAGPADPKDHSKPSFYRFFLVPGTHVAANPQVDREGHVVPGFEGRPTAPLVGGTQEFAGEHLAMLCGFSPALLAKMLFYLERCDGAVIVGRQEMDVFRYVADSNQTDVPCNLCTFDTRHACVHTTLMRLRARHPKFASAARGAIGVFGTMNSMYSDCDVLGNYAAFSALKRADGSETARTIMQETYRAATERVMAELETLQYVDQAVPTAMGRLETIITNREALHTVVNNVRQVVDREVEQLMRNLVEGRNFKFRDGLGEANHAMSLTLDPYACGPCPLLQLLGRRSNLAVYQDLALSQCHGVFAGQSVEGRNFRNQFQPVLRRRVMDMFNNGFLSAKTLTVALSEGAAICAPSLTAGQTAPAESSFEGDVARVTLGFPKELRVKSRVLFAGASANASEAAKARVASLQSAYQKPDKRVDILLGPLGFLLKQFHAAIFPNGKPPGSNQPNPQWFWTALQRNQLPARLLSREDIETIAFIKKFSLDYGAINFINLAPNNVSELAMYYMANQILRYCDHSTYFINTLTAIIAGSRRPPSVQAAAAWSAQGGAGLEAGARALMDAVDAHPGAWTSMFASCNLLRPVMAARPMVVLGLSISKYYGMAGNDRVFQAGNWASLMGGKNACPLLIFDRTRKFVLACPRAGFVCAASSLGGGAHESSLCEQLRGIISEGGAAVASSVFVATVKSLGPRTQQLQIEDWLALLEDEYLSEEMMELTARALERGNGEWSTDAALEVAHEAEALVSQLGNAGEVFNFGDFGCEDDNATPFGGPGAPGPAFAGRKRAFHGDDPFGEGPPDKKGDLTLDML

[2] = biological target: T1, full-length HSV-1 ICP8 with an …; assay: pull-down; GST pull-down: 50 μg GST-tagged UL9^CTD variants or C-tail peptides on GST beads with an equal amount of ICP8; 50 mM Tris pH 8.0, 150 mM NaCl, 1 mM DTT, 0.05% Tween-20; 1 h at 4 °C; SDS-PAGE with Coomassie; conditions: both partners purified
[3] = biological target: UL9CTD wild type (HSV-1, UniProt P10193 536-851); assay: MST; MST: 50 mM Tris pH 8.0, 150 mM NaCl, 1 mM DTT, 0.05% Tween-20, 40 nM FAM-dsDNA, 25 C; EMSA: 50 mM Tris pH 8.0, 50 mM NaCl, 1 mM DTT, 40 nM FAM-dsDNA, 0.5-3.5 uM protein, 4 C; cryo-EM complex: 20 mM HEPES pH 7.0, 150 mM NaCl, 1 mM DTT; conditions: protein: recombinant; tags: N-terminal 8xHis; blunt

B1: Strep-tagged UL9 C-terminal domain (residues 536-851) (domain or fragment)
chain: PEASLPAQAAETEEVGLFVEKYLRSDVAPAEIVALMRNLNSLMGRTRFIYLALLEACLRVPMATRSSAIFRRIYDHYATGVIPTINVTGELELVALPPTLNVTPVWELLCLCSTMAARLHWDSAAGGSGRTFGPDDVLDLLTPHYDRYMQLVFELGHCNVTDGLLLSEEAVKRVADALSGCPPRGSVSETDHAVALFKIIWGELFGVQMAKSTQTFPGAGRVKNLTKQTIVGLLDAHHIDHSACRTHRQLYALLMAHKREFAGARFKLRVPAWGRCLRTHSSSANPNADIILEAALSELPTEAWPMMQGAVNFSTL
notes: HSV-1 UL9 C-terminal domain, residues 536-851; As the His-tagged construct, with the N-terminal 8xHis tag replaced by a Strep-tag; also called UL9^CTD; Strep-tagged UL9^CTD; source: E. coli BL21 (DE3), purified (Strep-Tactin XT, Superdex 75); not shown: Strep-tag, N-terminal, kept
B1: binds [1].

B2: GST-tagged UL9 C-terminal domain (residues 536-851) (domain or fragment)
chain: PEASLPAQAAETEEVGLFVEKYLRSDVAPAEIVALMRNLNSLMGRTRFIYLALLEACLRVPMATRSSAIFRRIYDHYATGVIPTINVTGELELVALPPTLNVTPVWELLCLCSTMAARLHWDSAAGGSGRTFGPDDVLDLLTPHYDRYMQLVFELGHCNVTDGLLLSEEAVKRVADALSGCPPRGSVSETDHAVALFKIIWGELFGVQMAKSTQTFPGAGRVKNLTKQTIVGLLDAHHIDHSACRTHRQLYALLMAHKREFAGARFKLRVPAWGRCLRTHSSSANPNADIILEAALSELPTEAWPMMQGAVNFSTL
notes: HSV-1 UL9 C-terminal domain, residues 536-851; Cloned into pGEX-6P-1; also called UL9^CTD; source: E. coli BL21 (DE3), purified (Glutathione-Sepharose 4B); not shown: GST, N-terminal, kept
B2: binds [2].

B3: 15-bp oriS Box I dsDNA (dsDNA)
DNA 1: GCGTTCGCACTTCGT
DNA 2: ACGAAGTGCGAACGC
In the case of B3, the Kd [3] is reported as 2.23 ± 0.42 µM.
